Key:
Nsp9COV19 (15N-labeled) [1] = target: T1, Nsp9COV19 (15N-labeled) (SARS-CoV-2, UniProt P0DTD1 4141-4253); experiment: 15N-1H HSQC NMR titration
Nsp9COV19 (15N-labeled) [2] = target: T1, Nsp9COV19 (15N-labeled); experiment: 15N-1H HSQC NMR titration; remark: listed apart in the source

Binder | Kd (Nsp9COV19 (15N-labeled) [1]) [µM] | binding result (Nsp9COV19 (15N-labeled) [2])
UUGGAGUU (ssRNA) [RNA.2 (8 nt ssRNA)] | ~550 | –
AUUCG (ssRNA) [RNA.1 (5 nt ssRNA)] | – | binds
